Measured values from US20230365705A1 (DYNAMICURE BIOTECHNOLOGY, published 2023).
One block for each binder: values may come before it.

What was measured:
[1] = biological target: T1, Human CD93 recombinant protein (Sino Biological Inc, Catalog #12589-H08H) (human, UniProt Q9NPY3 22-580); test: BLI (Octet QKe), biotinylated human CD93 on streptavidin biosensors
T1 construct: Biotinylated (EZ-LINK NHS-PEG4 biotin) in the BLI assays; also called hCD93; His-tagged human CD93
T1 sequence (looked up): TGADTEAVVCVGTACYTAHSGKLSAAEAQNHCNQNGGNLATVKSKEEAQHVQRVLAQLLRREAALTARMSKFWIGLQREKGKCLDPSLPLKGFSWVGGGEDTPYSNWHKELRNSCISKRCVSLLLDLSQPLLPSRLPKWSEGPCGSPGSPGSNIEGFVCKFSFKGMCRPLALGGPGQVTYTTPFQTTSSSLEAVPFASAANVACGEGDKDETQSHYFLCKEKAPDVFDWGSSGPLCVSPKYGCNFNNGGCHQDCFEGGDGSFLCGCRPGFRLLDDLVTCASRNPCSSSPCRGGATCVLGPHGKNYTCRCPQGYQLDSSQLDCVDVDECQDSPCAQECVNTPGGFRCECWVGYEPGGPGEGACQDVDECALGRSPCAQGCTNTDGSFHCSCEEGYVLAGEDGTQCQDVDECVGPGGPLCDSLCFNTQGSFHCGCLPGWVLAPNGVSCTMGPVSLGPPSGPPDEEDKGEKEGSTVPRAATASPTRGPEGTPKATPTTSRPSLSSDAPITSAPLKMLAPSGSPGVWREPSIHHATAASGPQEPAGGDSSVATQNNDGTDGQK
Procedure: The binding affinity of anti-CD93 antibodies was determined with bio-layer interferometry using Octet QKe (Fortebio). […] Human CD93 recombinant protein (Sino Biological Inc, Catalog #12589-H08H) was biotinylated using EZ-LINK NHS-PEG4 biotin (Thermo Fisher Scientific). Streptavidin biosensors (Fortebio) were used to load biotinylated CD93 protein (300 seconds in 5 μg/ml). Baseline was stabilized for 60 seconds in 1× kinetics buffer (Fortebio) before anti-CD93 antibodies, at a serial dilution, were allowed to associate for 300 seconds with captured protein. Then the sensors were dissociated in 1× kinetics buffer for 600 seconds. […] (FIG. 42).

[2] = biological target: T2, Mouse CD93 on cells (mouse CD93 expressing CHO cells; mouse CD93 expressing HEK cells) (mouse, UniProt O89103 23-644); test: summary table; method and form of mouse CD93 not given
T2 construct: whole, on cells; also called mCD93 HEK; CD93-HEK cells
T2 sequence (looked up): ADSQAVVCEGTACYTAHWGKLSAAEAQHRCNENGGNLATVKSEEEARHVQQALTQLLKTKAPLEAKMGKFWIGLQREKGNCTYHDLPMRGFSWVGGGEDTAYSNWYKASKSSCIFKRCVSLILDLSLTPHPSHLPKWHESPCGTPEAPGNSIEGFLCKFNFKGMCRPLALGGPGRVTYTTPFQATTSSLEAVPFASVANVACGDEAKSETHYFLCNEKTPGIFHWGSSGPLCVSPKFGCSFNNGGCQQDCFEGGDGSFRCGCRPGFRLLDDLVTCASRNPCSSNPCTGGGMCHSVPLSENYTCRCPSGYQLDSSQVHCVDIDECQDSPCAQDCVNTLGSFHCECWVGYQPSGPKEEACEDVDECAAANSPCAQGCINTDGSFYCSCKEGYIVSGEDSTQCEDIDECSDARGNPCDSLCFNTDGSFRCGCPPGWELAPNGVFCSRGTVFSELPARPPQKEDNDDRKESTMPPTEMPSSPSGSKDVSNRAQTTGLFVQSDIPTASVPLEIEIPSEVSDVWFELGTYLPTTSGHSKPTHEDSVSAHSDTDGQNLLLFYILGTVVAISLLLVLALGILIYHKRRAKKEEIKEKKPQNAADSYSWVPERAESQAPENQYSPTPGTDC

[3] = biological target: T1, Human CD93 recombinant protein (Sino …); test: BLI (Octet QKe), biotinylated human CD93 on streptavidin biosensors; remark: listed apart in the source
Procedure: (§1) The binding affinity of anti-CD93 antibodies was determined with bio-layer interferometry using Octet QKe (Fortebio). […] Human CD93 recombinant protein (Sino Biological Inc, Catalog #12589-H08H) was biotinylated using EZ-LINK NHS-PEG4 biotin (Thermo Fisher Scientific). Streptavidin biosensors (Fortebio) were used to load biotinylated CD93 protein (300 seconds in 5 μg/ml). Baseline was stabilized for 60 seconds in 1×kinetics buffer (Fortebio) before anti-CD93 antibodies, at a serial dilution, were allowed to associate for 300 seconds with captured protein. Then the sensors were dissociated in 1× kinetics buffer for 600 seconds. […] (FIG. 41).

[4] = biological target: T1, Human CD93 recombinant protein (Sino …); test: BLI (Octet QKe), biotinylated human CD93 on streptavidin biosensors; antibody stored 2 weeks at 40 C
Procedure: as §1

[5] = biological target: T1, Human CD93 recombinant protein (Sino …); test: BLI (Octet QKe), biotinylated human CD93 on streptavidin biosensors; antibody stored 4 weeks at 40 C
Procedure: as §1

Kd [1]: 0.416 nM
koff [1]: 0.000104 s⁻¹
kon [1]: 249000 M⁻¹ s⁻¹
B1: h16E4 (humanized 16E4, VH4+VL6) (antibody, V domains shown)
VH: QVQLVQSGAEVKKPGASVKVSCKASGYTFTSYWMHWVRQAPGQGLEWMGEIDPSASYTYYNQKFKGRVTMTRDKSSSTVYMELSSLTSEDSAVYYCARSVYYGNKYFDVWGAGTTVTVSS
VL: DIQMTQSPSTLSASVGDRVTITCKASQSVDYAGDSYMNWYQQKPGKAPKLLIYAASNLESGVPSRFSGSGSGTEFTLTISSLQPDDFATYYCQQTNEDPRTFGGGTKLEIK
notes: Detected with anti-human IgG, so a human Fc

binding result [2]: no binding
B2: 16E4 (hybridoma) (antibody, IgG2a, V domains shown)
VH: QVQLQQPGAELVKPGASVKLSCKASGYTFTSYWMHWVKQRPGQGLEWIGEIDPSASYTYYNQKFKGKATLTVDKSSSTAYMQLSSLTSEDSAVYYCARSVYYGNKYFDVWGAGTTVTVSS
VL: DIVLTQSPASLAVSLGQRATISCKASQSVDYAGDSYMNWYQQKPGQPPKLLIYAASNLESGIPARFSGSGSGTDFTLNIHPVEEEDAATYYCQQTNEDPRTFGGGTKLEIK
notes: also called 16E4 mAb; 16E4 mIgG2a

Kd [3]: 0.472 nM
koff [3]: 0.000321 s⁻¹
kon [3]: 681000 M⁻¹ s⁻¹
Kd [4]: 0.495 nM
koff [4]: 0.000356 s⁻¹
kon [4]: 720000 M⁻¹ s⁻¹
Kd [5]: 0.487 nM
koff [5]: 0.000386 s⁻¹
kon [5]: 793000 M⁻¹ s⁻¹
B3: h7F3 (humanized 7F3, VH3+VL3) (antibody, human IgG1, V domains shown)
VH: QVQLVQSGAEVKKPGASVKVSCKASGYTFTDYEMHWVRQAPGQGLEWMGGIDPETGDTAYNQNFKGRVTMTTDTSTSTAYMELRSLTSDDTAVYYCTNYGNLYYYAMDYWGQGTSVTVSS
VL: EIVLTQSPSSLSASVGDRVTITCRASSSVSSSYLHWYQQKPGKAPKLLIYSTSNLAFGVPSRFSGSGSGTSYTFTISSLQPEDIATYYCQQYSGYPLTFGSGTKLEIK
notes: also called humanized 7F3-hIgG1
